# Data from US8367390B2, “Galactanase variants” (Novozymes A/S, priority 2002, dated 2013).
# Assay: Activity with ONPG, release of o-nitrophenol (ONP) at 405 nm
# Format: biochemical
# Settings: enzyme 110 μg/ml, ONPG 5 mg/ml
# Method: The activity of HIGAL and MTGAL with ONPG was tested by mixing 200 microliters (normally 5.5 mg/ml) ONPG in 50 mM sodium acetate, 1 mM CaCl2, 0.01% Triton X-100, pH 6.5 with 25 microliters galactanase (normally 1 mg/ml) in the well of a microtiter plate. Release of o-nitrophenol (ONP) was measured at room temperature at 405 nm every 10 seconds normally for 30 min on a SpectraMaxPlus (Molecular Devices). Effects on the observed release of ONP was studied with varied enzyme concentration, ONPG concentration and with addition of galactose (Gal), beta-1,4-galactobiose (Gal2) (Megazyme), beta-1,4-galactotriose (Gal3), beta-1,4-galactotetraose (Gal4), glucose (Glu), arabinose (Ara), galacturonic acid (GalA), maltose (Mal) or maltotriose (Mal3).
# In Tables 8-11 below, incubation times required to increase the observed absorbance at 405 nm by given amounts are listed. Cells marked ‘n.r.’ indicate that the increase in absorbance was not reached in the experiment. In general, the initial increase in absorbance at 405 nm was very slow, but after a lag phase the rate of ONP release often increased drastically—often approximately exponentially. The most likely explanation for the observed kinetics is that ONPG reacts with the enzyme to give an enzyme-galactosyl intermediate which hydrolyses very slowly. Instead, the Gal of the intermediate is released by transglycosylation, initially with ONPG or added sugar as acceptor. In cases where the rate of ONP release increases, these transglycosylation products are even better acceptors than the initial ones. […] More likely, Gal inhibits the subsequent transglycosylation, which requires binding of ONPG to the +1 and +2 subsites, e.g., by binding to the +2 subsite. With 50 mg/ml Gal added (results not shown) release of ONP was even slower with only insignificant increase of absorbance at 405 nm in 30 min.
molecule,measurement,setting,value
"HIGAL: GH Family 53 galactanase from Humicola insolens, SEQ ID NO: 2 (wild type parent) (protein, listed as Humicola insolens, mat_peptide (1)..()) ALQYKGVDWSSVMVEERAGVRYKNVNGQEKPLEYILAENGVNMVRQRVWVNPWDGNYNLDYNIQLARRAKAAGLGLYINFHYSDTWADPAHQTTPAGWPSDINNLAWKLYNYTLDSMNRFADAGIQVDIVSIGNEITQGLLWPLGKTNNWYNIARLLHSAAWGVKDSRLNPKPKIMVHLDNGWNWDTQNWWYTNVLSQGPFEMSDFDMMGVSFYPFYSASATLDSLRRSLNNMVSRWGKEVAVVETNWPTSCPYPRYQFPADVRNVPFSAAGQTQYIQSVANVVSSVSKGVGLFYWEPAWIHNANLGSSCADNTMFTPSGQALSSLSVFHRI",Initial rate (mOD/min),"Table 10, Gal3 0.5 mg/ml",200 mOD/min
same,Time (min) to increase A405 by: 0.025,"Table 10, Gal3 0.5 mg/ml",0.0 min
same,Time (min) to increase A405 by: 0.05,"Table 10, Gal3 0.5 mg/ml",0.2 min
same,Time (min) to increase A405 by: 0.1,"Table 10, Gal3 0.5 mg/ml",0.3 min
same,Time (min) to increase A405 by: 0.2,"Table 10, Gal3 0.5 mg/ml",0.5 min
same,Time (min) to increase A405 by: 0.4,"Table 10, Gal3 0.5 mg/ml",0.8 min
same,Time (min) to increase A405 by: 0.8,"Table 10, Gal3 0.5 mg/ml",1.5 min
same,Time (min) to increase A405 by: 1.6,"Table 10, Gal3 0.5 mg/ml",2.5 min
same,Time (min) to increase A405 by: 3.2,"Table 10, Gal3 0.5 mg/ml",3.8 min
same,Initial rate (mOD/min),"Table 10, Gal4 0.05 mg/ml",80 mOD/min
same,Time (min) to increase A405 by: 0.025,"Table 10, Gal4 0.05 mg/ml",0.2 min
same,Time (min) to increase A405 by: 0.05,"Table 10, Gal4 0.05 mg/ml",0.5 min
same,Time (min) to increase A405 by: 0.1,"Table 10, Gal4 0.05 mg/ml",0.8 min
same,Time (min) to increase A405 by: 0.2,"Table 10, Gal4 0.05 mg/ml",1.5 min
same,Time (min) to increase A405 by: 0.4,"Table 10, Gal4 0.05 mg/ml",2.5 min
same,Time (min) to increase A405 by: 0.8,"Table 10, Gal4 0.05 mg/ml",3.7 min
same,Time (min) to increase A405 by: 1.6,"Table 10, Gal4 0.05 mg/ml",5.2 min
same,Time (min) to increase A405 by: 3.2,"Table 10, Gal4 0.05 mg/ml",7.5 min
same,Initial rate (mOD/min),"Table 10, Gal4 0.5 mg/ml",700 mOD/min
same,Time (min) to increase A405 by: 0.025,"Table 10, Gal4 0.5 mg/ml",0.0 min
same,Time (min) to increase A405 by: 0.05,"Table 10, Gal4 0.5 mg/ml",0.0 min
same,Time (min) to increase A405 by: 0.1,"Table 10, Gal4 0.5 mg/ml",0.0 min
same,Time (min) to increase A405 by: 0.2,"Table 10, Gal4 0.5 mg/ml",0.2 min
same,Time (min) to increase A405 by: 0.4,"Table 10, Gal4 0.5 mg/ml",0.5 min
same,Time (min) to increase A405 by: 0.8,"Table 10, Gal4 0.5 mg/ml",1.0 min
same,Time (min) to increase A405 by: 1.6,"Table 10, Gal4 0.5 mg/ml",2.2 min
same,Time (min) to increase A405 by: 3.2,"Table 10, Gal4 0.5 mg/ml",5.3 min
same,Initial rate (mOD/min),"Table 10, no sugar",0.9 mOD/min
same,Time (min) to increase A405 by: 0.025,"Table 10, no sugar",10.0 min
same,Time (min) to increase A405 by: 0.05,"Table 10, no sugar",11.3 min
same,Time (min) to increase A405 by: 0.1,"Table 10, no sugar",12.8 min
same,Time (min) to increase A405 by: 0.2,"Table 10, no sugar",14.2 min
same,Time (min) to increase A405 by: 0.4,"Table 10, no sugar",15.7 min
same,Time (min) to increase A405 by: 0.8,"Table 10, no sugar",17.0 min
same,Time (min) to increase A405 by: 1.6,"Table 10, no sugar",18.5 min
same,Time (min) to increase A405 by: 3.2,"Table 10, no sugar",20.0 min
same,Time (min) to increase A405 by: 0.025,"Table 11, Ara 5 mg/ml",26.5 min
same,Time (min) to increase A405 by: 0.05,"Table 11, Ara 5 mg/ml",n.r.
same,Time (min) to increase A405 by: 0.1,"Table 11, Ara 5 mg/ml",n.r.
same,Time (min) to increase A405 by: 0.2,"Table 11, Ara 5 mg/ml",n.r.
same,Time (min) to increase A405 by: 0.4,"Table 11, Ara 5 mg/ml",n.r.
same,Time (min) to increase A405 by: 0.8,"Table 11, Ara 5 mg/ml",n.r.
same,Time (min) to increase A405 by: 1.6,"Table 11, Ara 5 mg/ml",n.r.
same,Time (min) to increase A405 by: 3.2,"Table 11, Ara 5 mg/ml",n.r.
same,Time (min) to increase A405 by: 0.025,"Table 11, GalA 5 mg/ml",9.5 min
same,Time (min) to increase A405 by: 0.05,"Table 11, GalA 5 mg/ml",11.2 min
same,Time (min) to increase A405 by: 0.1,"Table 11, GalA 5 mg/ml",12.7 min
same,Time (min) to increase A405 by: 0.2,"Table 11, GalA 5 mg/ml",14.3 min
same,Time (min) to increase A405 by: 0.4,"Table 11, GalA 5 mg/ml",15.8 min
same,Time (min) to increase A405 by: 0.8,"Table 11, GalA 5 mg/ml",17.5 min
same,Time (min) to increase A405 by: 1.6,"Table 11, GalA 5 mg/ml",19.3 min
same,Time (min) to increase A405 by: 3.2,"Table 11, GalA 5 mg/ml",22.5 min
same,Time (min) to increase A405 by: 0.025,"Table 11, GalA 50 mg/ml",13.7 min
same,Time (min) to increase A405 by: 0.05,"Table 11, GalA 50 mg/ml",16.7 min
